Each block holds one binder with its values, some of them ahead of it.
How the values were obtained:
[1] = target: T1, human TNFR2 (human, UniProt P20333 23-461); experiment: binding to CHO cells over-expressing human TNFR2
T1 construct: Human TNFR2 over-expressed on CHO cells, full length on transduced NF-KB-GFP Jurkat cells, or native on human primary T cells; also called Hu TNFR2; TNFRSF1B
T1 sequence: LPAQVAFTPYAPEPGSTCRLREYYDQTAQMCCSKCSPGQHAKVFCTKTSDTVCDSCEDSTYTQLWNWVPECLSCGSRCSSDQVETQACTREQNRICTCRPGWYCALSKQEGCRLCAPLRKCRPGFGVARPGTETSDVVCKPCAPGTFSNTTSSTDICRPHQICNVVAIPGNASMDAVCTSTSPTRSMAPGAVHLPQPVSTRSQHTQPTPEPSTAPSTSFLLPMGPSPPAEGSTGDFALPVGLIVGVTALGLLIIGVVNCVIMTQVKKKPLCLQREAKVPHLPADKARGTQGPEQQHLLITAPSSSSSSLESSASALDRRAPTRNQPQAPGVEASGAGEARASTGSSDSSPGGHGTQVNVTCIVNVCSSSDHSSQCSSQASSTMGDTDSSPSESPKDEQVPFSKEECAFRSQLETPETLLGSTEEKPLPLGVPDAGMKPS

[2] = target: T2, biotinylated cyno TNFR2 (cynomolgus monkey, UniProt P20333 23-257 (human entry), limits assumed, biotinylated); experiment: SPR (BIAcore), biotinylated TNFR2 captured on streptavidin chip, antibody as analyte (apparent affinity)
T2 construct: Soluble biotinylated protein captured on a streptavidin chip for SPR; also called CyTNFR2
T2 chain: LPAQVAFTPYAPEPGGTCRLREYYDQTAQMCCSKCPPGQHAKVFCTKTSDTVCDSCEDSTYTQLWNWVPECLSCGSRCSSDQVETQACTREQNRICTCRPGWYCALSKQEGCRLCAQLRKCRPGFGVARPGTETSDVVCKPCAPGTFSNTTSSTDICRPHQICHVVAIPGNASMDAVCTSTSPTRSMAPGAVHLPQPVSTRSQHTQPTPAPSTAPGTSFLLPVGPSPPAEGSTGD
Method: (§1) Increased avidity was confirmed by Surface Plasmon Resonance (SPR) using a BIAcore. Briefly, biotinylated human- or cyno-TNFR2 was captured on the surface of a streptavidin chip for 60 seconds at a flow rate of […]. […] The dissociation phase was then initiated with running buffer (HBS-EP+) injected for 600 seconds at […]. Data were analyzed using the Biacore Evaluation Software.

[3] = target: T3, biotinylated human TNFR2 (human, UniProt P20333 23-257, biotinylated); experiment: as above
T3 construct: Soluble biotinylated protein captured on a streptavidin chip for SPR; also called HuTNFR2
T3 sequence: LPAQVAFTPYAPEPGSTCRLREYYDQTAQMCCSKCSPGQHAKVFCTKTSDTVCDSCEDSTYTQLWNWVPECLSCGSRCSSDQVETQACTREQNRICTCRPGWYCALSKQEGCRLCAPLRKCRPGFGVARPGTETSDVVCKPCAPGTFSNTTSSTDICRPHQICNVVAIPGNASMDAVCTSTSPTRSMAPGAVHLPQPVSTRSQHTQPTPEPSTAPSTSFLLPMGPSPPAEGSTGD
Method: as §1

[4] = target: T1, human TNFR2; experiment: cell-based or functional assay
[5] = target: T1, human TNFR2; experiment: binding to human TNFR2 CHO cells
[6] = target: T1, human TNFR2; experiment: cell-based or functional assay; remark: listed apart in the source
[7] = target: T4, cynomolgus monkey TNFR2 (cynomolgus monkey, UniProt P20333 23-461 (human entry)); experiment: cell-based or functional assay
T4 chain: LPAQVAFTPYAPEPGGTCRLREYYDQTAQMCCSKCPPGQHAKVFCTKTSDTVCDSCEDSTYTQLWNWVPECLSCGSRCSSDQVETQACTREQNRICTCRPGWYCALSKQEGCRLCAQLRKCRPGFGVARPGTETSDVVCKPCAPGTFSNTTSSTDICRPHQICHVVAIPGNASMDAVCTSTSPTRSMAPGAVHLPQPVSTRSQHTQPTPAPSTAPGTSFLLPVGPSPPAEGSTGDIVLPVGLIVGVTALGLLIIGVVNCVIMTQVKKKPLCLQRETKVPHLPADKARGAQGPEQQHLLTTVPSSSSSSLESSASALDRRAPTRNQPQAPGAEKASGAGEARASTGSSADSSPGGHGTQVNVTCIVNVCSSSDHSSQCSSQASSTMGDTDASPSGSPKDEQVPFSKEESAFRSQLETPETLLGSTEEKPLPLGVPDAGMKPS

[8] = target: T1, human TNFR2; experiment: cell-based or functional assay; remark: listed apart in the source
[9] = target: T4, cynomolgus monkey TNFR2; experiment: cell-based or functional assay
[10] = target: T5, human TNFR2 (human, UniProt P20333 23-461); experiment: binding to human TNFR2 CHO cells, TetraFab format
T5 construct: expressed on the surface of CHO cells; also called HuTNFR2; TNFRSF1B
T5 sequence: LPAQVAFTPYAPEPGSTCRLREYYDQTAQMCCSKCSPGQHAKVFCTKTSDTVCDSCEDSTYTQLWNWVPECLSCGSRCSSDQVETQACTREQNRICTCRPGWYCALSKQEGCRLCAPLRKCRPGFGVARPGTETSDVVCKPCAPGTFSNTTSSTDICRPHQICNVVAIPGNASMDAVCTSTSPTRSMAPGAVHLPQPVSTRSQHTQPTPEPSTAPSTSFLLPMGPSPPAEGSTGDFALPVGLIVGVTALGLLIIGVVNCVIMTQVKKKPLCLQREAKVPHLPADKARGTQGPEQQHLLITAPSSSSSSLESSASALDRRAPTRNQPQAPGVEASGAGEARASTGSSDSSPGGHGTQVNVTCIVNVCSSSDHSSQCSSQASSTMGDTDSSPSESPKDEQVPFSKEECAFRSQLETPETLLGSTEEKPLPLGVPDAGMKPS

B2: GBT-TNFR2-1765 (antibody, human IgG2, kappa, V domains shown)
VH: QVQLVQSGAEVKKPGASVKVSCKVSGFSFPSSGVDWVRQAPGQGLEWLGVTWGVGSTHYNQKFQGRVTITKDTSKSTVYMELSSLRSEDTAVYYCASGEWDEGFVYWGQGTLVTVSS
VL: DIQLTQSPSFLSASVGDRVTITCKASQNVGTAVAWYQQKPGKAPKLLIYAASTLQSGVPSRFSGSGSGTEFTLTISSLQPEDFATYYCQQYSSYPLTFGGGTKVEIKR
- Kd [2]: 2.39 nM
- koff [2]: 0.00977 s⁻¹
- kon [2]: 4.09e+06 M⁻¹ s⁻¹
- Kd [3]: 0.32 nM
- koff [3]: 0.00136 s⁻¹
- kon [3]: 4.2e+06 M⁻¹ s⁻¹
- EC50 Jurkat [4]: 1.01 µg/mL
- EC50 [5]: 1.21 nM
- EC50 (HuPBMC) [6]: 1.31 nM
- Jurkat EC50 [6]: 1.01 µg/mL
- EC50 (CyPBMC) [7]: 13.6 nM
- EC50 HuPBMC (ICAM-1 up-regulation) [8]: 1.31 µg/mL
- EC50 CyPBMC (CD25+/Ki67+ of CD4+ cells) [9]: 13.6 µg/mL

B3: TetraFab 2209 (antibody, human IgG1, kappa)
heavy: QVQLVQSGAEVKKPGASVKVSCKVSGFSFPSSGVDWVRQAPGQGLEWLGVTWGVGSTHYNQKFQGRVTITKDTSKSTVYMELSSLRSEDTAVYYCASGEWDEGFVYWGQGTLVTVSSASTKGPSVFPLAPSSKSTSGGTAALGCLVKDYFPEPVTVSWNSGALTSGVHTFPAVLQSSGLYSLSSVVTVPSSSLGTQTYICNVNHKPSNTKVDKKVEPKSCGGGGSQVQLVQSGAEVKKPGASVKVSCKVSGFSFPSSGVDWVRQAPGQGLEWLGVTWGVGSTHYNQKFQGRVTITKDTSKSTVYMELSSLRSEDTAVYYCASGEWDEGFVYWGQGTLVTVSSASTKGPSVFPLAPSSKSTSGGTAALGCLVKDYFPEPVTVSWNSGALTSGVHTFPAVLQSSGLYSLSSVVTVPSSSLGTQTYICNVNHKPSNTKVDKKVEPKSCDKTHTCPPCPAPEAAGAPSVFLFPPKPKDTLMISRTPEVTCVVVDVSHEDPEVKFNWYVDGVEVHNAKTKPREEQYNSTYRVVSVLTVLHQDWLNGKEYKCKVSNKALPAPIEKTISKAKGQPREPQVYTLPPSREEMTKNQVSLTCLVKGFYPSDIAVEWESNGQPENNYKTTPPVLDSDGSFFLYSKLTVDKSRWQQGNVFSCSVMHEALHNHYTQKSLSLSPGK
light: DIQLTQSPSFLSASVGDRVTITCKASQNVGTAVAWYQQKPGKAPKLLIYAASTLQSGVPSRFSGSGSGTEFTLTISSLQPEDFATYYCLQYSSYPLTFGGGTKVEIKRTVAAPSVFIFPPSDEQLKSGVTASVVCLLNNFYPREAKVQWKVDNALQSGNSQESVTEQDSKDSTYSLSSTLTLSKADYEKHKVYACEVTHQGLSSPVTKSFNRGEC
notes: TetraFab; parental heavy chain
- EC50 [10]: 0.15 nM

Second part, the binder after the results:

- EC50 [1]: 0.0698 µg/mL
B1: clone 825 (antibody, V domains shown)
VH: QVQLKESGPGLVAPSQSLSITCTVSGFSFPSSGVDWVRQSPGKGLEWLGVTWGVGSTHYNSALKSRLSISKDNSKSQVFLKMNSLQTEDTAIYYCASGEWDEGFVYWGQGTLVTVSA
VL: DIVMTQSQKFMSTTVGDRVSITCKASQNVGTAVAWYQQKPGQSPKLLIYSASNRYTGVPDRFTGSGSGTDFTLTISNMQSEDLADYFCQQYSSYPLTFGGGTKLEIK
notes: human IgG1 (L234A, L235A, G237A, EU), kappa

- EC50 [10]: 2.3 nM
B4: TetraFab 2208 (antibody, human IgG1, kappa)
heavy: QVQLVQSGAEVKKPGASVKVSCKVSGFSFPSSGVDWVRQAPGQGLEWLGVTWGVGSTHYNQKFQGRVTITKDTSKSTVYMELSSLRSEDTAVYYCASGEWDEGFVYWGQGTLVTVSSASTKGPSVFPLAPSSKSTSGGTAALGCLVKDYFPEPVTVSWNSGALTSGVHTFPAVLQSSGLYSLSSVVTVPSSSLGTQTYICNVNHKPSNTKVDKKVEPKSCGGGGSQVQLVQSGAEVKKPGASVKVSCKVSGFSFPSSGVDWVRQAPGQGLEWLGVTWGVGSTHYNQKFQGRVTITKDTSKSTVYMELSSLRSEDTAVYYCASGEWDEGFVYWGQGTLVTVSSASTKGPSVFPLAPSSKSTSGGTAALGCLVKDYFPEPVTVSWNSGALTSGVHTFPAVLQSSGLYSLSSVVTVPSSSLGTQTYICNVNHKPSNTKVDKKVEPKSCDKTHTCPPCPAPEAAGAPSVFLFPPKPKDTLMISRTPEVTCVVVDVSHEDPEVKFNWYVDGVEVHNAKTKPREEQYNSTYRVVSVLTVLHQDWLNGKEYKCKVSNKALPAPIEKTISKAKGQPREPQVYTLPPSREEMTKNQVSLTCLVKGFYPSDIAVEWESNGQPENNYKTTPPVLDSDGSFFLYSKLTVDKSRWQQGNVFSCSVMHEALHNHYTQKSLSLSPGK
light: DIQLTQSPSFLSASVGDRVTITCKASQNVGTAVAWYQQKPGKAPKLLIYAASTLQSGVPSRFSGSGSGTEFTLTISSLQPEDFATYYCLQKSSYPLTFGGGTKVEIKRTVAAPSVFIFPPSDEQLKSGVTASVVCLLNNFYPREAKVQWKVDNALQSGNSQESVTEQDSKDSTYSLSSTLTLSKADYEKHKVYACEVTHQGLSSPVTKSFNRGEC
notes: as for B3

- EC50 [10]: 0.7 nM
B5: TetraFab 2053 (antibody, human IgG1, kappa)
heavy: QVQLVQSGAEVKKPGASVKVSCKVSGFSFPSSGVDWVRQAPGQGLEWLGVTWGVGSTHYNQKFQGRVTITKDTSKSTVYMELSSLRSEDTAVYYCASGEWDEGFVYWGQGTLVTVSSASTKGPSVFPLAPSSKSTSGGTAALGCLVKDYFPEPVTVSWNSGALTSGVHTFPAVLQSSGLYSLSSVVTVPSSSLGTQTYICNVNHKPSNTKVDKKVEPKSCGGGGSQVQLVQSGAEVKKPGASVKVSCKVSGFSFPSSGVDWVRQAPGQGLEWLGVTWGVGSTHYNQKFQGRVTITKDTSKSTVYMELSSLRSEDTAVYYCASGEWDEGFVYWGQGTLVTVSSASTKGPSVFPLAPSSKSTSGGTAALGCLVKDYFPEPVTVSWNSGALTSGVHTFPAVLQSSGLYSLSSVVTVPSSSLGTQTYICNVNHKPSNTKVDKKVEPKSCDKTHTCPPCPAPEAAGAPSVFLFPPKPKDTLMISRTPEVTCVVVDVSHEDPEVKFNWYVDGVEVHNAKTKPREEQYNSTYRVVSVLTVLHQDWLNGKEYKCKVSNKALPAPIEKTISKAKGQPREPQVYTLPPSREEMTKNQVSLTCLVKGFYPSDIAVEWESNGQPENNYKTTPPVLDSDGSFFLYSKLTVDKSRWQQGNVFSCSVMHEALHNHYTQKSLSLSPGK
light: DIQLTQSPSFLSASVGDRVTITCKASQNVGTAVAWYQQKPGKAPKLLIYAASTLQSGVPSRFSGSGSGTEFTLTISSLQPEDFATYYCQQYSSYPLTFGGGTKVEIKRTVAAPSVFIFPPSDEQLKSGVTASVVCLLNNFYPREAKVQWKVDNALQSGNSQESVTEQDSKDSTYSLSSTLTLSKADYEKHKVYACEVTHQGLSSPVTKSFNRGEC
notes: dual Fab heavy chain (outer VH-CH1, G4S linker, inner VH-CH1, human IgG1 Fc) pairing with 4 light chains; also called TF2053
